# Laboratory results taken from US20230330254A1 (Regeneron, published 2023).
# Numbering of substitutions follows the chain as printed. Like-named read-outs stand apart in the source and are kept apart here.
# T1: full-length human glucagon-like peptide 2 receptor on HEK293/CRE-Luc/hGLP2R cells (human, UniProt O95838 1-553)
# T1 sequence (looked up): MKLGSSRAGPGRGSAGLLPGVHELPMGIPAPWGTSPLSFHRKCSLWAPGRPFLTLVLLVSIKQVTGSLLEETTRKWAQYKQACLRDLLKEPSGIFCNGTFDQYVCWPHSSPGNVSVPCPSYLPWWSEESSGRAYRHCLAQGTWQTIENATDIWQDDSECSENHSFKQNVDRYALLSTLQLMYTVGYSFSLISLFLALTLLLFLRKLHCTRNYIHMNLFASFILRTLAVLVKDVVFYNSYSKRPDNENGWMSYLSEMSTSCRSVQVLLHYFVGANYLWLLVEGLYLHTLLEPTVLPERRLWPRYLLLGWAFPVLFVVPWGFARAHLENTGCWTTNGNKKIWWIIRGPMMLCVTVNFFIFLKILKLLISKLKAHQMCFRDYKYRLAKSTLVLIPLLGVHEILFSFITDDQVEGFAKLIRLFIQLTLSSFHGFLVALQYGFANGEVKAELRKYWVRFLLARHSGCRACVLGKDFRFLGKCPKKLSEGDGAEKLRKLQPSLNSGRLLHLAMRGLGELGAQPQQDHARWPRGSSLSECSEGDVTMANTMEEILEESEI
# T2: full-length human gastric inhibitory polypeptide receptor on HEK293/CRE-Luc/hGIPR cells (human, UniProt P48546 22-466)
# T2 sequence (looked up): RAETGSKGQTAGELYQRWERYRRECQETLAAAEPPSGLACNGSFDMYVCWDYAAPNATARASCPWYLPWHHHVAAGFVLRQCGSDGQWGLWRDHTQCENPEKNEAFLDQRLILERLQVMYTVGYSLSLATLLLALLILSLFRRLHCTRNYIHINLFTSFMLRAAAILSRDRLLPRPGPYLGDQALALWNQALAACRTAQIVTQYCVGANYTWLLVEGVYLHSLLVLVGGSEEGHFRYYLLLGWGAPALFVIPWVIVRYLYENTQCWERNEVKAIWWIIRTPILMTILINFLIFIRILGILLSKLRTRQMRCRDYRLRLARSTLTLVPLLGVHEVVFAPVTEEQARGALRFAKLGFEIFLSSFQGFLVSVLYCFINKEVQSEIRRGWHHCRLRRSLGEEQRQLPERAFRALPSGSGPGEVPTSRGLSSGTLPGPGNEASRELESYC
# T3: full-length mouse GLP1R on HEK293/CRE-Luc/mGLP1R cells (mouse, UniProt O35659 22-463)
# T3 construct: whole, on cells
# T3 sequence (looked up): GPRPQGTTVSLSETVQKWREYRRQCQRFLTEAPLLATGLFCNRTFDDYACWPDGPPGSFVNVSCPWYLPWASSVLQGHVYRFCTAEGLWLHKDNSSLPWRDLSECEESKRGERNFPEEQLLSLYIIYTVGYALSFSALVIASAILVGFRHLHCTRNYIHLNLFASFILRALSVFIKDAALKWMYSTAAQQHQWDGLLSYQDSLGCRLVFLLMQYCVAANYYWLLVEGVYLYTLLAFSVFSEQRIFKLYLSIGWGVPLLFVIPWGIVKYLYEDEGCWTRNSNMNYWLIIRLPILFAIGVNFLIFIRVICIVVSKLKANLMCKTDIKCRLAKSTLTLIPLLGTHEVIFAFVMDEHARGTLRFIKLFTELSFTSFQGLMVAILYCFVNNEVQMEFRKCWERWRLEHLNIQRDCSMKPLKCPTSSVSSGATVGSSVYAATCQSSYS
# B1: GLP1R agonist linker-payload LP11 (NH2-PEG8-triazole-P8) (peptide)
# peptide: XXGTXTSDXX
# modifications: CapAib-E*-G-T-F*-T-S-D-AA2-AA1: CapAib = 3-((2-(1H-imidazol-5-yl)ethyl)amino)-2,2-dimethyl-3-oxopropanoic acid; E* = (S)-2-amino-3-(2H-tetrazol-5-yl)propanoic acid; F* = (S)-2-amino-3-(2-fluorophenyl)-2-methylpropanoic acid; AA2 = biphenylalanine derivative carrying the amino-PEG8-triazole linker; AA1 = (S)-2-amino-5-(3,5-dimethylphenyl)pentanamide
# B2: REGN7990 (antibody, human IgG4 S228P, kappa, V domains shown)
# VH: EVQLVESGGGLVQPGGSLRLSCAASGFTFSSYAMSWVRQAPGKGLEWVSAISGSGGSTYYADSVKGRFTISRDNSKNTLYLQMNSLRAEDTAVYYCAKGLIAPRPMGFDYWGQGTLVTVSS
# VL: DIQMTQSPSSVSASVGDRVTITCRASQGINSWLAWYQQKPGKAPKLLIYAASSLQSGVPSRFSGSGSGTDFTLTISSLQPEDFATYYCHQADSFPYTFGQGTKLEIKR
# notes: IgG4; Q-tag on light chain N-terminus; also called mAb 3; REGN7990 unconjugated Ab
# B3: REGN7990-M3190 (antibody, human IgG4 S228P, kappa, V domains shown)
# VH: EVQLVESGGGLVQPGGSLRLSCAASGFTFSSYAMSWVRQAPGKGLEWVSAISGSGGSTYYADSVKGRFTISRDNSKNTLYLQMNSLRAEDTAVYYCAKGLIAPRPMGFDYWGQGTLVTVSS
# VL: B2 VL
# modifications: linker-payload M3190 (LP11) on Gln 3 of the N-terminal Q-tag LLQGSG
# notes: antibody-tethered drug conjugate; also called REGN7990 ATDC; anti-GLP1R mAb3-LP11
# B4: REGN15869 (antibody, human IgG4 S228P, kappa, V domains shown)
# VH: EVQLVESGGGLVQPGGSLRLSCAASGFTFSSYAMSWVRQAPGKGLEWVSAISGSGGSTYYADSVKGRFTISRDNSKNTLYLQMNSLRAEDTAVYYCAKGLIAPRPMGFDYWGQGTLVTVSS
# VL: B2 VL with Q55E
# notes: IgG4; Q-tag on light chain N-terminus; also called REGN15869 unconjugated Ab
# What was measured:
# [1] = biological target: T4, full-length human GLP1R on HEK293/CRE-Luc/hGLP1R cells (human, UniProt P43220 24-463); experiment: cell-based or functional assay
# [2] = biological target: T4, full-length human GLP1R on …; experiment: cell-based or functional assay; remark: listed apart in the source
# [3] = biological target: human GLP1R on PathHunter eXpress GLP1R CHO-K1 b-Arrestin GPCR cells (human, UniProt P43220 24-463); experiment: cell-based or functional assay
# [4] = biological target: T4, full-length human GLP1R on …; experiment: cell-based or functional assay; remark: listed apart in the source
# [5] = biological target: T1, full-length human glucagon-like peptide …; experiment: cell-based or functional assay
# [6] = biological target: T2, full-length human gastric inhibitory …; experiment: cell-based or functional assay
# [7] = biological target: T5, full-length human glucagon receptor on HEK293/CRE-Luc/hGCGR cells (human, UniProt P47871 26-477); experiment: cell-based or functional assay
# [8] = biological target: T6, full-length cynomolgus GLP1R on HEK293/CRE-Luc/mfGLP1R cells (cynomolgus, UniProt F8V479 24-463); experiment: cell-based or functional assay
# [9] = biological target: T4, full-length human GLP1R on …; experiment: cell-based or functional assay; remark: listed apart in the source
# [10] = biological target: T1, full-length human glucagon-like peptide …; experiment: cell-based or functional assay; remark: listed apart in the source
# [11] = biological target: T2, full-length human gastric inhibitory …; experiment: cell-based or functional assay; remark: listed apart in the source
# [12] = biological target: T5, full-length human glucagon receptor on …; experiment: cell-based or functional assay; remark: listed apart in the source
# [13] = biological target: T6, full-length cynomolgus GLP1R on …; experiment: cell-based or functional assay; remark: listed apart in the source
# [14] = biological target: Myc-tagged full length human GLP1R on HEK293/Myc-hGLP1R/Cre-Luc cells (human, UniProt P43220 24-463); experiment: cell-based or functional assay
# [15] = biological target: T4, full-length human GLP1R on …; experiment: cell-based or functional assay; remark: listed apart in the source
# [16] = biological target: T4, full-length human GLP1R on …; experiment: cell-based or functional assay; remark: listed apart in the source
# [17] = biological target: T4, full-length human GLP1R on …; experiment: flow cytometry, hGLP1R cells
# [18] = biological target: T4, full-length human GLP1R on …; experiment: flow cytometry, hGLP1R cells; remark: listed apart in the source
# [19] = biological target: T6, full-length cynomolgus GLP1R on …; experiment: flow cytometry, mfGLP1R cells
# [20] = biological target: T6, full-length cynomolgus GLP1R on …; experiment: flow cytometry, mfGLP1R cells; remark: listed apart in the source
# [21] = biological target: T3, full-length mouse GLP1R on …; experiment: flow cytometry, mGLP1R cells
# [22] = biological target: T7, N-terminal ectodomain of human GLP1R expressed with a myc-myc hexahistidine tag (human, UniProt P43220 24-145, limits assumed); experiment: SPR, captured via anti-hFc, 25 C
# T7 construct: extracellular domain; also called hGLP1R-MMH; hGLP1R.mmh
# T7 sequence (P43220 24-145 limits assumed): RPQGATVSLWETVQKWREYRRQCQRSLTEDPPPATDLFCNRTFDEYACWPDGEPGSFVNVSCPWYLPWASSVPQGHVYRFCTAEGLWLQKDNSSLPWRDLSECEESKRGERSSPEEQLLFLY
# T5 sequence (P47871 26-477): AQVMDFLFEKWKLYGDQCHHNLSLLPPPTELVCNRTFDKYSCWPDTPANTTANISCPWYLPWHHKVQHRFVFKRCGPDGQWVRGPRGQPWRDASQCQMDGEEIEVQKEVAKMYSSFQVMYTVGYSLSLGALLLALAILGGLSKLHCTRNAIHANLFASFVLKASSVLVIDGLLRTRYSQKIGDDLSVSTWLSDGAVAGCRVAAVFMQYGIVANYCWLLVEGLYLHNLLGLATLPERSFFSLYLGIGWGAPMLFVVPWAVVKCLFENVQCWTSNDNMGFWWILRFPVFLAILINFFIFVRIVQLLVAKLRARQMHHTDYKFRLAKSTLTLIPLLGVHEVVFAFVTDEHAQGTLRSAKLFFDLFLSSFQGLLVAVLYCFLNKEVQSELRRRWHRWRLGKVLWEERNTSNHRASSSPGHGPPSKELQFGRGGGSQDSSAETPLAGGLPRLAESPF
Binder,CRE-luc EC50 [1] [nM],CRE-luc Relative Potency (% M2361 EC50) [1] [%],CRE-luc Relative Signal:Noise (% M2361) [1] [%],CRE-luc S/N [1] [fold],CRE-luc EC50 [2] [nM],CRE-luc Emax (% GLP-1) [2] [%],b-arrestin 2 recruitment EC50 [3] [nM],b-arrestin 2 recruitment Emax (% GLP-1) [3] [%],CRE-luc EC50 [4] [nM],CRE-luc EC50 [5] [nM],CRE-luc EC50 [6] [nM],CRE-luc EC50 [7] [nM],CRE-luc EC50 [8] [nM],CRE-luc EC50 [9] [nM],EC50 [18] [nM],Flow S/N [18] [fold],EC50 [20] [nM],Flow S/N [20] [fold],EC50 [21] [nM],Flow S/N [21] [fold],further results
B1,0.0369,44,96.4,62,0.0168,93.9,2.48,108,0.0601,> 30,> 30,> 30,0.202,0.0258,–,–,–,–,–,–,CRE-luc EC50 [10]: > 200 nM; CRE-luc EC50 [11]: > 200 nM; CRE-luc EC50 [12]: > 200 nM; CRE-luc EC50 [13]: 0.0463 nM; CRE-luc EC50 [14]: 0.016 nM; CRE-luc EC50 (experiment A) [15]: 0.0161 nM; CRE-luc Relative Potency (% P8 EC50) (experiment A) [15]: 33.1%; CRE-luc S/N (experiment A) [15]: 74.5 fold; cAMP EC50 [16]: 0.318 nM
B2,–,–,–,–,–,–,–,–,> 30,> 30,> 30,> 30,> 30,–,8.48,260,7.47,528,61.4,154,EC50 [17]: 1.89 nM; Flow S/N [17]: 256 fold; EC50 [19]: 0.988 nM; Flow S/N [19]: 205 fold
B3,0.0601,27,135,86.9,0.236,90.9,17.2,103,0.0637,> 30,> 30,> 30,0.257,0.0724,30.5,231,29.9,486,91.5,29.3,EC50 [17]: 9.81 nM; Flow S/N [17]: 117 fold; EC50 [19]: 4.79 nM; Flow S/N [19]: 103 fold; CRE-luc EC50 [10]: > 200 nM; CRE-luc EC50 [11]: > 200 nM; CRE-luc EC50 [12]: > 200 nM; CRE-luc EC50 [13]: 0.0772 nM; 90 nM hGLP1R.mmh Bound (RU) [22]: 22.8 RU; Kd [22]: 2.01 nM; koff [22]: 0.000785 s⁻¹; kon [22]: 390000 M⁻¹ s⁻¹; t1/2 [22]: 14.7 min
B4,–,–,–,–,> 1000,0.5,> 1000,4.3,> 30,> 30,> 30,> 30,> 30,–,9.56,106,8.96,132,43.1,53.3,–
